Test results as given in publication PMC6191456 (Scientific Reports, 2018).

T1: pre-formed ClpA-ParD complex (E. coli | plasmid RK2, UniProt P0ABH9;P22995)
T1 construct: also called ParD-ClpA complex; source: formed on the sensor chip: purified ParD (200 nM) injected onto immobilised purified ClpA
T1 sequence 1: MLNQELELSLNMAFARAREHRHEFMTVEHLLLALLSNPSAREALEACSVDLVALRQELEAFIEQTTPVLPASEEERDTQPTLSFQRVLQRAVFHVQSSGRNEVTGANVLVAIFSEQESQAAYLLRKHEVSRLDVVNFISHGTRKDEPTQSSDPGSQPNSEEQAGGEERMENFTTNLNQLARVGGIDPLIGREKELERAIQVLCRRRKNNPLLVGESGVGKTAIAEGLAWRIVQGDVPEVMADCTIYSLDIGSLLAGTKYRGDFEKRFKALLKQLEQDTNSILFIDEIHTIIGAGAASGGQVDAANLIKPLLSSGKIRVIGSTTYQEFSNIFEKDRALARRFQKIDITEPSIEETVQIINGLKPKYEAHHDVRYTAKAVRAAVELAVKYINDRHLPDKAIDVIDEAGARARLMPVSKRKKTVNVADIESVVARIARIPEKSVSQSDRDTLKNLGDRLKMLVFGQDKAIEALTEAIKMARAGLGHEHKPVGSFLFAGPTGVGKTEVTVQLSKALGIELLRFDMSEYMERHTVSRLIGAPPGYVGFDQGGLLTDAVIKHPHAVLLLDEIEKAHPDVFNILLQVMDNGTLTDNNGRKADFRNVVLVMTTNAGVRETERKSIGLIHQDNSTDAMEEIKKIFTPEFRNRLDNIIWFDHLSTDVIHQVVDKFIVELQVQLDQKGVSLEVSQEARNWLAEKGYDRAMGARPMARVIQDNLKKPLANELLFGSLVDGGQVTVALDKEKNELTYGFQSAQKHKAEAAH
T1 sequence 2: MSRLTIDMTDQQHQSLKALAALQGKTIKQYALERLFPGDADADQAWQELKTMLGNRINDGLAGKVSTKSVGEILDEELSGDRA

T2: ClpA, the ATPase unit of ClpAP protease (E. coli, UniProt P0ABH9 1-758)
T2 construct: ClpA, ATP-dependent unfoldase subunit of the ClpAP protease, E. coli; also called ClpA ATPase; source: purified by a published protocol [55]
T2 sequence (looked up): T1 sequence 1

B1: ParE toxin of the parDE system from the broad host range plasmid RK2 (natural protein)
chain: MTAYILTAEAEADLRGIIRYTRREWGAAQVRRYIAKLEQGIARLAAGEGPFKDMSELFPALRMARCEHHYVFCLPRAGEPALVVAILHERMDLMTRLADRLKG
notes: also called GST-ParE
B2: ParD antitoxin of the parDE system from the broad host range plasmid RK2 (natural protein, UniProt P22995 1-83, looked up)
chain: T1 sequence 2
notes: the construct is not described for the SPR; source: purified by a published protocol [30]
B3: ParD-ParE complex (preincubated ParD and ParE proteins) (complex)
chain 1: T1 sequence 2
chain 2: B1 chain
notes: the ParD2-ParE2 make-up is cited from earlier work and not measured here; also called ParD-ParE heterotetamer; ParDE complex; source: purified ParD (200 nM) preincubated with increasing concentrations of purified ParE; copies: 2 + 2

How the values were obtained:
Conditions in all cases: both partners purified
[1] = target: T1, pre-formed ClpA-ParD complex; assay: SPR; BIAcore 2000; ClpA immobilised on a CM5 chip; ParD (200 nM) injected to pre-form the ClpA-ParD complex, then ParE (200 nM) injected; ParD or buffer as controls; HBS-EP buffer with 10 mM magnesium acetate and 2 mM ATP
[2] = target: T2, ClpA, the ATPase unit of ClpAP protease; assay: SPR; BIAcore 2000; ParD or ParE immobilised on a CM5 chip, ClpA injected; HBS-EP buffer with 10 mM magnesium acetate and 2 mM ATP; flow 15 µl/min
[3] = target: B1; assay: SPR; BIAcore 2000; ClpA immobilised on a CM5 chip; ParD (200 nM) injected to pre-form the ClpA-ParD complex, then ParE (200 nM) injected; ParD or buffer as controls; HBS-EP buffer with 10 mM magnesium acetate and 2 mM ATP
[4] = target: T2, ClpA, the ATPase unit of ClpAP protease; assay: SPR; BIAcore 2000; ClpA immobilised on a CM5 chip; mixture of ParD (200 nM) preincubated with increasing concentrations of ParE injected; HBS-EP buffer with 10 mM magnesium acetate and 2 mM ATP

B1: binds [1].

B2: binds [2]; binds [3].

B3: binds [4].
